From patent US20250382602 come the findings set out here.

Changes are numbered by the printed parent chain.

Settings in all cases: nanopore translocation, FLO-MIN112; background mutations not given
Data set [1] has as its target T1, Dda 1993 351I 351I (Enterobacteria phage T4) (UniProt P32270).
T1 sequence: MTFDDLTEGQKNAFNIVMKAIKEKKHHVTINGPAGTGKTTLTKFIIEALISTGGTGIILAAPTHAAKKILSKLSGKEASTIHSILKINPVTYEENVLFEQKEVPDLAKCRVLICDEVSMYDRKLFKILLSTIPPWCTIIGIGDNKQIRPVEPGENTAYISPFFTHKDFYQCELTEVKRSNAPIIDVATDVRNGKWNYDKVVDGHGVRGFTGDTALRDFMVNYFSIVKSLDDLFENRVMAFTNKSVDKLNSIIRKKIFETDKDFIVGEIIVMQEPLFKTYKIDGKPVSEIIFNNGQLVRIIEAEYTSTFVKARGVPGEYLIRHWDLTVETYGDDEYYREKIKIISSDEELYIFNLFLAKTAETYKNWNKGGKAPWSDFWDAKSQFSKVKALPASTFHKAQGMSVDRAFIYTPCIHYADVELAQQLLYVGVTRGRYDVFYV

The target of data set [2] is T2, Dda 1993 361I 361I (Enterobacteria phage T4) (UniProt P32270).
T2 sequence: T1 sequence with I351K, E361I

The target of data set [3] is T3, Dda 1993 K358S K358S (Enterobacteria phage T4) (UniProt P32270).
T3 sequence: T1 sequence with I351K, K358S

The target of data set [4] is T4, Dda 1993 354A 354A (Enterobacteria phage T4) (UniProt P32270).
T4 sequence: T1 sequence with I351K, L354A

Data set [5] concerns the target T5, Dda 1993 351Q 351Q (Enterobacteria phage T4) (UniProt P32270).
T5 sequence: T1 sequence with I351Q

The target in data set [6] is T6, Dda 1993 K358I K358I (Enterobacteria phage T4) (UniProt P32270).
T6 sequence: T1 sequence with I351K, K358I

For “barcoded 3.6 kb DNA analyte ligated to sequencing Y adaptor”, the activity (bps speed delta vs control) is -9.76 in data set [1]; 21.6 in data set [2]; 1.6 in data set [3]; 11.3 in data set [4]; -5.61 in data set [5]; -5.51 in data set [6].
